B1: EHEE_rd2_1257 (parent)
chain: EEERTFTNEEEARKAKKEAEKRGLRVTVTKDGTTWRVRIG

Variants of: B1
Assay: folding stability dG (cDNA display proteolysis); higher = more stable
Settings: PBS, room temperature
For EEERTFTWEEEARKAKKEAEKRGLRVTVTKDGTTWRVRIG [N8W], the “folding stability dG” value was 0.726 kcal/mol.
In the case of EEERTFTYEEEARKAKKEAEKRGLRVTVTKDGTTWRVRIG [N8Y], the “folding stability dG” value is reported as 0.987 kcal/mol.
In the case of EEERTFTSEEEARKAKKEAEKRGLRVTVTKDGTTWRVRIG [N8S], the “folding stability dG” value is reported as 2.31 kcal/mol.
For EEERTFTREEEARKAKKEAEKRGLRVTVTKDGTTWRVRIG [N8R], the “folding stability dG” value was 1.49 kcal/mol.
For EEERTFTVEEEARKAKKEAEKRGLRVTVTKDGTTWRVRIG [N8V], the “folding stability dG” value was 1.43 kcal/mol.
In the case of EEERTFTQEEEARKAKKEAEKRGLRVTVTKDGTTWRVRIG [N8Q], the “folding stability dG” value is reported as 1.12 kcal/mol.
In the case of EEERTFTTEEEARKAKKEAEKRGLRVTVTKDGTTWRVRIG [N8T], the “folding stability dG” value is reported as 2.35 kcal/mol.
With EEERTFTNEEEARYAKKEAEKRGLRVTVTKDGTTWRVRIG [K14Y] the “folding stability dG” value was 2.02 kcal/mol.
For EEERTFTNEEEARVAKKEAEKRGLRVTVTKDGTTWRVRIG [K14V], the “folding stability dG” value was 1.83 kcal/mol.
For EEERTFTNEEEARMAKKEAEKRGLRVTVTKDGTTWRVRIG [K14M], the “folding stability dG” value was 2.15 kcal/mol.
With EEERTFTNEEEARDAKKEAEKRGLRVTVTKDGTTWRVRIG [K14D] the “folding stability dG” value was 1.86 kcal/mol.
With EEERTFTNEEEARWAKKEAEKRGLRVTVTKDGTTWRVRIG [K14W] the “folding stability dG” value was 1.94 kcal/mol.
In the case of EEERTFTNEEEARAAKKEAEKRGLRVTVTKDGTTWRVRIG [K14A], the “folding stability dG” value is reported as 2.31 kcal/mol.
In the case of EEERTFTNEEEARSAKKEAEKRGLRVTVTKDGTTWRVRIG [K14S], the “folding stability dG” value is reported as 1.89 kcal/mol.
For EEERTFTNEEEARNAKKEAEKRGLRVTVTKDGTTWRVRIG [K14N], the “folding stability dG” value was 2.11 kcal/mol.
For EEERTFTNEEEARHAKKEAEKRGLRVTVTKDGTTWRVRIG [K14H], the “folding stability dG” value was 2.01 kcal/mol.
For EEERTFTNEEEARFAKKEAEKRGLRVTVTKDGTTWRVRIG [K14F], the “folding stability dG” value was 1.94 kcal/mol.
With EEERTFTNEEEARGAKKEAEKRGLRVTVTKDGTTWRVRIG [K14G] the “folding stability dG” value was 1.49 kcal/mol.
For EEERTFTNEEEARTAKKEAEKRGLRVTVTKDGTTWRVRIG [K14T], the “folding stability dG” value was 1.93 kcal/mol.
In the case of EEERTFTNEEEAREAKKEAEKRGLRVTVTKDGTTWRVRIG [K14E], the “folding stability dG” value is reported as 2.19 kcal/mol.
For EEERTFTNEEEARQAKKEAEKRGLRVTVTKDGTTWRVRIG [K14Q], the “folding stability dG” value was 2.18 kcal/mol.
For EEERTFTNEEEARIAKKEAEKRGLRVTVTKDGTTWRVRIG [K14I], the “folding stability dG” value was 2 kcal/mol.
In the case of EEERTFTNEEEARLAKKEAEKRGLRVTVTKDGTTWRVRIG [K14L], the “folding stability dG” value is reported as 2.1 kcal/mol.
For EEERTFTNEEEARRAKKEAEKRGLRVTVTKDGTTWRVRIG [K14R], the “folding stability dG” value was 2.17 kcal/mol.
With EEERTFTNTEEARKAKKEAEKRGLRVTVTKDGTTWRVRIG [E9T] the “folding stability dG” value was 0.236 kcal/mol.
In the case of EEERTFTNAEEARKAKKEAEKRGLRVTVTKDGTTWRVRIG [E9A], the “folding stability dG” value is reported as 1.76 kcal/mol.
In the case of EEERTFTNYEEARKAKKEAEKRGLRVTVTKDGTTWRVRIG [E9Y], the “folding stability dG” value is reported as 2.73 kcal/mol.
For EEERTFTNIEEARKAKKEAEKRGLRVTVTKDGTTWRVRIG [E9I], the “folding stability dG” value was 1.96 kcal/mol.
With EEERTFTNMEEARKAKKEAEKRGLRVTVTKDGTTWRVRIG [E9M] the “folding stability dG” value was 1.55 kcal/mol.
With EEERTFTNNEEARKAKKEAEKRGLRVTVTKDGTTWRVRIG [E9N] the “folding stability dG” value was 0.702 kcal/mol.
With EEERTFTNREEARKAKKEAEKRGLRVTVTKDGTTWRVRIG [E9R] the “folding stability dG” value was 1.77 kcal/mol.
With EEERTFTNPEEARKAKKEAEKRGLRVTVTKDGTTWRVRIG [E9P] the “folding stability dG” value was 1.47 kcal/mol.
In the case of EEERTFTNDEEARKAKKEAEKRGLRVTVTKDGTTWRVRIG [E9D], the “folding stability dG” value is reported as 0.502 kcal/mol.
For EEERTFTNSEEARKAKKEAEKRGLRVTVTKDGTTWRVRIG [E9S], the “folding stability dG” value was 1.35 kcal/mol.
With EEERTFTNQEEARKAKKEAEKRGLRVTVTKDGTTWRVRIG [E9Q] the “folding stability dG” value was 1.58 kcal/mol.
In the case of EEERTFTNWEEARKAKKEAEKRGLRVTVTKDGTTWRVRIG [E9W], the “folding stability dG” value is reported as 2.9 kcal/mol.
In the case of EEERTFTNFEEARKAKKEAEKRGLRVTVTKDGTTWRVRIG [E9F], the “folding stability dG” value is reported as 2.37 kcal/mol.
With EEERTFTNGEEARKAKKEAEKRGLRVTVTKDGTTWRVRIG [E9G] the “folding stability dG” value was 1.42 kcal/mol.
In the case of EEERTFTNKEEARKAKKEAEKRGLRVTVTKDGTTWRVRIG [E9K], the “folding stability dG” value is reported as 1.58 kcal/mol.
With EEERTFTNHEEARKAKKEAEKRGLRVTVTKDGTTWRVRIG [E9H] the “folding stability dG” value was 1.45 kcal/mol.
In the case of EEERTFTNVEEARKAKKEAEKRGLRVTVTKDGTTWRVRIG [E9V], the “folding stability dG” value is reported as 1.72 kcal/mol.
In the case of EEERTFTNLEEARKAKKEAEKRGLRVTVTKDGTTWRVRIG [E9L], the “folding stability dG” value is reported as 2.01 kcal/mol.
In the case of EEERTFTNETEARKAKKEAEKRGLRVTVTKDGTTWRVRIG [E10T], the “folding stability dG” value is reported as 1.81 kcal/mol.
For EEERTFTNEAEARKAKKEAEKRGLRVTVTKDGTTWRVRIG [E10A], the “folding stability dG” value was 2.16 kcal/mol.
In the case of EEERTFTNENEARKAKKEAEKRGLRVTVTKDGTTWRVRIG [E10N], the “folding stability dG” value is reported as 1.86 kcal/mol.
With EEERTFTNELEARKAKKEAEKRGLRVTVTKDGTTWRVRIG [E10L] the “folding stability dG” value was 2.11 kcal/mol.
With EEERTFTNEDEARKAKKEAEKRGLRVTVTKDGTTWRVRIG [E10D] the “folding stability dG” value was 2.01 kcal/mol.
For EEERTFTNEIEARKAKKEAEKRGLRVTVTKDGTTWRVRIG [E10I], the “folding stability dG” value was 1.98 kcal/mol.
For EEERTFTNEYEARKAKKEAEKRGLRVTVTKDGTTWRVRIG [E10Y], the “folding stability dG” value was 2.21 kcal/mol.
With EEERTFTNEQEARKAKKEAEKRGLRVTVTKDGTTWRVRIG [E10Q] the “folding stability dG” value was 2.03 kcal/mol.
In the case of EEERTFTNEHEARKAKKEAEKRGLRVTVTKDGTTWRVRIG [E10H], the “folding stability dG” value is reported as 1.96 kcal/mol.
With EEERTFTNEFEARKAKKEAEKRGLRVTVTKDGTTWRVRIG [E10F] the “folding stability dG” value was 2.01 kcal/mol.
In the case of EEERTFTNEKEARKAKKEAEKRGLRVTVTKDGTTWRVRIG [E10K], the “folding stability dG” value is reported as 2.07 kcal/mol.
For EEERTFTNECEARKAKKEAEKRGLRVTVTKDGTTWRVRIG [E10C], the “folding stability dG” value was 2.31 kcal/mol.
In the case of EEERTFTNEGEARKAKKEAEKRGLRVTVTKDGTTWRVRIG [E10G], the “folding stability dG” value is reported as 1.81 kcal/mol.
For EEERTFTNEPEARKAKKEAEKRGLRVTVTKDGTTWRVRIG [E10P], the “folding stability dG” value was 1.38 kcal/mol.
With EEERTFTNEVEARKAKKEAEKRGLRVTVTKDGTTWRVRIG [E10V] the “folding stability dG” value was 1.86 kcal/mol.
With EEERTFTNEREARKAKKEAEKRGLRVTVTKDGTTWRVRIG [E10R] the “folding stability dG” value was 2.23 kcal/mol.
For EEERTFTNESEARKAKKEAEKRGLRVTVTKDGTTWRVRIG [E10S], the “folding stability dG” value was 1.89 kcal/mol.
For EEERTFTNEMEARKAKKEAEKRGLRVTVTKDGTTWRVRIG [E10M], the “folding stability dG” value was 2.02 kcal/mol.
For EEERTFTNEWEARKAKKEAEKRGLRVTVTKDGTTWRVRIG [E10W], the “folding stability dG” value was 2.57 kcal/mol.
With EEERTFTNEEEAAKAKKEAEKRGLRVTVTKDGTTWRVRIG [R13A] the “folding stability dG” value was 1.93 kcal/mol.

— the MegaScale stability set (Tsuboyama et al. 2023)
